Target: T1, TACI ligand (TACI-L), expressed on transfected cells (Homo sapiens (Human), UniProt Q9Y275 1-285)
T1 construct: cDNA of TACI-L transfected into cells on slides and into CV1 cells (flow cytometry); also called Neutrokine alpha; TL5
Test: slide binding assay on cDNA-transfected cells
Procedure: […] by adding 2 μg of the DNA encoding the members of the ligand family to a sterile tube and adding 75 μM choloroquine in transfection/growth medium to a final volume of 175 μl. 25 μl of DEAE-dextran (4 mg/ml in PBS) was then added to the DNA solution and mixed.
The growth medium was aspirated from the slides and replaced with 3 ml of 75 μM chloroquine in the transfectionfgrowth medium, followed by the addition of the DNA/DEAE-dextran mixture to the cells. The slides were rocked side-to-side and back-and-forth to distribute the precipitated DNA evenly. The slides were incubated at 37° C. for 4.5 hours.
To screen for positive pools expressing the cell-bound protein, slides were incubated with TACI:Fc and then with a radioiodinated protein probe (labeled goat anti-human Fc F(ab′)2) for 30 minutes at room temperature. The probe solution is then removed by aspiration and washed to remove the non-specifically bound probe. Finally, the slides were fixed by incubating each slide with 1 ml 2.5% glutaraldehyde in PBS for 30 minutes at room temperature to retain specifically bound label. The slides were then washed twice with 1 ml PBS and air-dried.

T1 sequence (Q9Y275 whole entry): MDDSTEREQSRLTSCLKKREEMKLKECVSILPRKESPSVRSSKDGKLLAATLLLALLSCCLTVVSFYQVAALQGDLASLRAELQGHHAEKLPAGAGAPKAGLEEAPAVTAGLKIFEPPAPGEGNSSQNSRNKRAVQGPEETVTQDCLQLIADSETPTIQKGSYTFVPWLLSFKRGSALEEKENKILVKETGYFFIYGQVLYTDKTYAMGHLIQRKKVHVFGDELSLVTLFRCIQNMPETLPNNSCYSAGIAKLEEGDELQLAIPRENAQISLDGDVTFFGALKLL

binding result: binds
B1: TACI-Fc (Fc fusion)
chain: SGLGRSRRGGRSRVDQEERFPQGLWTGVAMRSCPEEQYWDPLLGTCMSCKTICNHQSQRTCAAFCRSLSCRKEQGKFYDHLLRDCISCASICGQHPKQCAYFCENKLRSPVNLPPELRRQRSGEVENNSDNSGRYQGLEHRGSEASPALPGLKLSADQVALVYST
notes: also called HuTACI/Fc; Fc chimera; not shown: Fc portion of human IgG1, fused in-frame at the 3' end
